{"source": "patent US20180214569A1", "about": "(Regeneron, published 2018)", "binders": {"B1": {"name": "H1H15381P (antibody, V domains shown)", "VH": "EVQLVESGGGLVQPGGSLRLSCAASGFTFSRYDMHWVRQVTGKGLEWVSVIGTAGDTYYPDSVKGRFTISRENAKNSLSLQMNSLRAGDTAVYYCTRSYNWNFPFGYWGQGTLVTVSS", "VL": "DIQMTQSPSTLSASVGDRVTITCRASQSISSWLAWYQQKPGKAPRLLIYEASSLETGVPSRFSGSGSGTEFTLTISSLQPDDFATYYCQQYNRYPWTFGQGTKVEIK"}}, "key": {"[1]": {"molecular_target": "S. aureus delta toxin (Staphylococcus aureus, UniProt P0C1V1 1-26)", "assay": "ELISA, plate coated with toxin component", "experimental": "(§1) MaxiSorp microtiter plates were coated overnight with 10 μg/mL of individual F-components of S. aureus bicomponent toxins per well. Recombinant toxin components were either obtained from IBT BioServices (Gaithersburg, Md.) or generated by GenScript (Piscataway Township, N.J.). […] Wells were washed 3 times and then incubated with 100 ng/mL anti-human HRP secondary antibody per well for one hour at 25° C. 100 μL of SuperSignal ELISA Pico Chemiluminescent Substrate, (ThermoFisher Scientific) was added to the wells and signal was detected (Victor X3 plate reader, Perkin Elmer). Luminescence values were analyzed by a three-parameter logistic equation over an 11-point response curve (GraphPad Prism). Isotype-matched irrelevant control antibody and S. aureus delta toxin were included as controls."}, "[2]": {"molecular_target": "T1, LukF (GS) (Staphylococcus aureus)", "T1 construct": "also called LukF-PV; F-component LukF from GenScript", "assay": "ELISA, plate coated with toxin component, chemiluminescence", "experimental": "as §1"}, "[3]": {"molecular_target": "T2, LukF (IBT) (Staphylococcus aureus)", "T2 construct": "also called LukF-PV; F-component LukF from IBT BioServices", "assay": "ELISA, plate coated with toxin component, chemiluminescence", "experimental": "as §1"}, "[4]": {"molecular_target": "T3, LukD (GS) (Staphylococcus aureus, UniProt O54082 27-327)", "T3 sequence": "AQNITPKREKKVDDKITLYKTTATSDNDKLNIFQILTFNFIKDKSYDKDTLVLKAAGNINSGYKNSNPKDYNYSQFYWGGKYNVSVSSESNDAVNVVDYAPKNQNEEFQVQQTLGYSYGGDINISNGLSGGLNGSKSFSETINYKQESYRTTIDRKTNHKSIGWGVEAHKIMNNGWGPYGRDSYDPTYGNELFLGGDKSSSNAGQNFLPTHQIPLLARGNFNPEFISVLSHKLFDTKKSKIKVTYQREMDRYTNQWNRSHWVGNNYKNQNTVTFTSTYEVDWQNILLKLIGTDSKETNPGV", "assay": "ELISA, plate coated with toxin component, chemiluminescence", "experimental": "as §1"}, "[5]": {"molecular_target": "T4, HlgB (GS) (Staphylococcus aureus, UniProt P0A077 26-325)", "T4 sequence": "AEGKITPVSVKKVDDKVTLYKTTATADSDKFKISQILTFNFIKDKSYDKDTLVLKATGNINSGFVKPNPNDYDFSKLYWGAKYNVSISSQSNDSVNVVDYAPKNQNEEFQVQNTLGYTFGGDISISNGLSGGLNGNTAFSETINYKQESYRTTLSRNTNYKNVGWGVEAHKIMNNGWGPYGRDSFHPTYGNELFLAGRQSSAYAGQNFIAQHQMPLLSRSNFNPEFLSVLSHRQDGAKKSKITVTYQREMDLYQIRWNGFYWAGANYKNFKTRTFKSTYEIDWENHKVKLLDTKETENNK", "assay": "ELISA, plate coated with toxin component, chemiluminescence", "experimental": "as §1"}}}
{"binder": "B1", "values": [{"measurement": "binding result", "setting": "[1]", "result": "no binding (tested: titration 50 uM-100 pM)"}, {"measurement": "EC50", "setting": "[2]", "result": 66.7, "unit": "nM"}, {"measurement": "EC50", "setting": "[3]", "result": 165, "unit": "nM"}, {"measurement": "EC50", "setting": "[4]", "result": 59.6, "unit": "nM"}, {"measurement": "EC50", "setting": "[5]", "result": 102, "unit": "nM"}]}
